{"source": "the DeepSol protein solubility set"}
{"test": "soluble on expression in E. coli; label from the status in PepcDB or PDB records"}
{"sequence": "MNTDKQVYPLYYEAKNDKVRKRLGIKGGFYWAEAKKLSIAISRGAVAIDDAGYDEDDFKKPVRVNLPVVDDLPPEGVFDTEFCNRYEKGGEDGITMVFIASSPSVQDKPASTDNTNVNGEDMTEIEENMLLPVSGQELPIRWLAQHGSEKPVTHVSRDELQALHIARDEELPAVTALAVSHKTSLLDPLEIRDLHKLVRDTDRVFPNPGNSSLGLMTAFFEAYMDADYTDRGLLTKEWMKGNRVSRITRTASGANAGGGNLTDRGEGFVHDLTSLARDVATGVLARSMDVDIYNLHPAHAKRVEEIIAENKPPFSVFRDKFITMPGGMDYSRAIVVASVKEAPIGIEVIPAHVTEYLNKVLTETDHANPDPEIVDIACGRSSAPMPQRVTEEGKQDDEEKTQPSGAMADEQATAETMEPDATEHHQNTQPLDAQSQVNSVDEKYQELRAELHEARKNIPPKNPVDADKLLAALR", "soluble on expression in E. coli": "not soluble"}
{"sequence": "MNTLIPISEQTVGQETVQTVNARDLHAFLEVKTSFKDWIIRRIQDCKFKEGYDFCSFLSESSGGRPSKEYHITLDMAKHLSMIERNDKGHEARQYFNFLFDNMSVLCLLSNQVPQKHLKYTAGRLPKQSLLRTLKALTHYMLVAYKWLVGCGYAIQYPRGESVTTDCVPCF", "soluble on expression in E. coli": "soluble"}
{"sequence": "MNTLPDTHVREASGCPSPITIWQTLLTRLLDQHYGLTLNDTPFADERVIEQHIEAGISLCDAVNFLVEKYALVRTDQPGFSAGAPSQLINSIDILRARRATGLMTRDNYRTVNNITRGKHPEAKQ", "soluble on expression in E. coli": "not soluble"}
{"sequence": "MNTNHYYIRYGCAITLYDNHVSERERLTPKELRFSIEKAVSSFRIQAQEPFSPGSKARFSFVKRKDGNTKNGIFLSPHIVTKDMHAQKVWTKASKFLEIDYLGKDNEREGLLKKDNVSMSNIPISGEYLTFGEKDTGRGSAKISVEEQTYGLITTLTPLKPALQVGKDNFCIIPDIPLNQMVDFIALFDKMQITHLSGEAMLGNIDNKGIPHRPKIFRGNFPNSPKSDRMGAIALLGAIGEFAKHAEFSTLAQKVLDSLKGST", "soluble on expression in E. coli": "not soluble"}
{"sequence": "MNTNREPRFHDKVQAACYALMLDEHGVPADTGTLLYTKNAAVDRSEASGDLSPAKEFSIGRGFLEFVVRERNHLAALEASDGPPTGYEADAKCDYCFEQDTCMVVSGRLDQESKAGRIGDPVPAEERAYFDELYDAIEAERGAIHDEYRKLWEQSPDERAADDRAVVGLSPAEQTELPDGRWRLTATRPGSAASKIREGDRVLASDGDPVAGRAEMARVERLDADRVEVTTDEPVSLCRLDVYPSELEHHHHHH", "soluble on expression in E. coli": "soluble"}
{"sequence": "MNTQNYTYSTTGYQPSQPSGGQQSYNETRQYSSNATSNYPSQTQQYQQQQHQYQSDHSNAQRLLNSGYNTNQVDYVLGHKDKYNEGPHYQPPIINSSATAANNSSSSTHHYNSSSQAIPLGGPNQGHSSSSYTTETRVTGGGTGAPVSNNYSNQNYSSSAYNSQSSQHQTKSIPVQNYQISFPPLSVSTPAFGTSFFENSQKSFQESSEKFHRDLASPLSRTIPVQSAGHFSEVSKYFNSEEEENYQVSQPAIPLPSADQVYEVSSNYNKSYSSQTTTQHQPQPVAANNNYSTSYHTERSSTTTAQQPQTIALPPPQNNSSHTETHSSTGPIMMHSPGGHSMKSTEFSSSRHHKQETTTTTTTTPQPPVFQTTTYPTTKTTSYNYSSSTIPSQPAKPSFNQESYTTHTERNNSSQGFPQQRLQPSGGYSYENYSSSRKEENRREETSRPVSQLSQYSESRNYKRNYEEKTETTTVPSLAPATNVTYKDLSNAQCVDDVFNKKTEMNESLPVGSVFNTHNNTEGGYRDANGHDVSYKRETQTSADPGRETALLKEEEKRVVETPLEPGVISRHVTTKYYKKKTVTDTTTTTA", "soluble on expression in E. coli": "not soluble"}
{"sequence": "MNTVCTHCQAINRIPDDRLQDAAKCGRCGHELFDGEVINATGETLDKLLKDDLPVVIDFWAPWCGPCRNFAPIFEDVAEERSGKVRFVKVNTEAERELSARFGIRSIPTIMIFKHGQVVDMLNGAVPKAPFDSWLNEAL", "soluble on expression in E. coli": "not soluble"}
{"sequence": "MNVAIIGATGYSGAELFRLLHGHPHVSRCDVFSSSQDGVHVSESFPHVGSVDGAVLHKLEIEALSRYDAVFFATPPGVSGEWAPALVDRGVKVIDLSGDFRLKDGAVYEQWYGRQTAPAEYLQKAVYGLTEWNREAVREAVLLSNPGCYPTATLLGLAPLVKEGLIKEDSIIVDAKSGVSGAGRKAGLGTHFSEVNENVKIYKVNVHQHIPEIEQTLQTWNEAMEPITFSTHLIPMTRGIMATIYAKAKQSISPNDLVDLYKTSYEGSPFVRIRQLGQFPATKEVYGSNYCDIGLAYDERTGRVTVVSVIDNLMKGAAGQAVQNFNLMMGWDEAEGLQSLPIYP", "soluble on expression in E. coli": "not soluble"}
{"sequence": "MNVFQMRDKLKARLKHLDVEFKFDREEETLRIVRIDNHKGVTIKLNAIVAKYEEQKEKIIDEICYYVEEAIAQMGDEVINNVEDIQIMPVIRATSFDKETKEGHAFVLTEHTAETNIYYALDLGKSYRLIDENMLQTLNLTAQQVKEMSLFNVRKLECRYSTDEVKGNIFYFINTNDGYDASRILNTSFLNHIQHQCEGEMLVGVPHQDVLILADIRNKTGYDVMAHLTMEFFTKGLVPITSLSFGYDNGHLEPIFILGKNNKQK", "soluble on expression in E. coli": "not soluble"}
{"sequence": "MNVGLSAEVRYHWFREHLVVVGDWHRLSPSERDRLRHQPMPDEAAQSLRVDLSPWSCGMVFSELLGADLTRFGLCYLAPAEVPASDLTRLGRRLREEFPLLDSQVDSGAEGFELVVHGQPEESPALEVGPFADENALIAALLQRPHSLFERGLLRLFHGRCGGRARWGVWLHHLVADADFASVLLARLAVLNADPTTEAAAPEFGFLQQQWRLERQLRERRTRLEDYWSERGEAFRELASLPWAERASHCEDFRLAATPGGGEAALLTRLACALALALASQGATGKVLALTPVSLRSRRGTAVSGCWLNLVPLLLDAATAEDTFERHRLEAFEHSLLPAEAIAERAGLRYADAQVMINVIDQPFHSAGFIHRPTLKSRLPLTLTLVRRDDGGWDASLASRFGRERTLALAAAMAEALRPC", "soluble on expression in E. coli": "not soluble"}
{"sequence": "MNVLKEVYATIEKRIEEKPEGSYVAKLTTDDKKTAVNKICEKVGEEAAEVIIAAKDNDKAEIIYESADLIFHTMVLLAKSGITYEELSEEFKKRMKLEHHHHHH", "soluble on expression in E. coli": "not soluble"}
{"sequence": "MNVLSPHIALYRLFDVADEIDLGRLSTPRLRLSRARLGAVRFENPPGEMELGVRNVEGLSGLLTARLYEFGVVSLSFRIHLGERVPWEAFLEKGLRIPELPFWEGFFLAELAALEPHLRGALLRPEEKRLSEEFVVYHALGLEGEKAFRPSVDLTPLWMGAEEEFAPEVRREVERYRYSYSTEDLALLGFDRVLILDSEGIWDVADLVEFVHAQLLELSYYDRVLTEELELVPQVLRHRGLWGYGRLQRLRRRLMARHAEIADVKARMEGALRITEDLFYAKIYRAALELYGAYELEKSVEEKLRVLEATYEMVTEEVAHLRTQAVEVAILALIAFEVVRALH", "soluble on expression in E. coli": "soluble"}
{"sequence": "MNVMRHSWLAVAGIAGLLAFPPVDACTLWGAAGTASMEGSLLAKNRDWKPDHAQSLRLLHPEHGYAYLGLYADNGSEPGIKAGVNQKGLAVVAAEASSLPRALRADSARHGVLTRLLRDYGSLDEVASAADKLFAQARPVFLLLADAGGLMQVEIGQHGRYRLIRQQSGTLAHTNHYADTSLLDGAQTIGPSSQARLERIRFLLDQHPAHTLSEFERLSRDRHDGPDNSLWRSGREHTLAGWRIALPAGAPPRLQLTLANPGRAERDGDYALDSAFWAQPARTLLPKLAAALEHHHHHH", "soluble on expression in E. coli": "soluble"}
{"sequence": "MNVSVVIPALNEEATVADVVALSRRGSDEVIVIDSDSTDATAARAKAAGASVVNWRDVVSLPPIPGKGEALWRGVAAARGDVVVFLDADLTEISPTIVEDLARPFIDDSVMLAKAAYTRGDASGGGGRVTELTARPLLEAFFPELGFVRQPLGGEYAIRRSAALDLPFVGGYGVEVGLLIDVFRCFGAASIVEVEAGHRGHRHRPLRELAPMARVVASTILQRAGVASGLDGVGQRPAISSLESGVGKV", "soluble on expression in E. coli": "not soluble"}
{"sequence": "MNVTSGMDQILAQLKATSDLAAGGSKPSATVSTVSQADFGQLLKSAVDQVNTVQQTASQLSREFVGGNQDVELHDVMISLQKANVSFQSMIQVRNRLVTAYQEIMNMQV", "soluble on expression in E. coli": "not soluble"}
{"sequence": "MNVVNNSRDVIYSSGIVFGTSGARGLVKDFTPQVCAAFTVSFVAVMQEHFSFDTVALAIDNRPSSYGMAQACAAALADKGVNCIFYGVVPTPALAFQSMSDNMPAIMVTGSHIPFERNGLKFYRPDGEITKHDEAAILSVEDTCSHLELKELIVSEMAAVNYISRYTSLFSTPFLKNKRIGIYEHSSAGRDLYKPLFIALGAEVVSLGRSDNFVPIDTEAVSKEDREKARSWAKEFDLDAIFSTDGDGDRPLIADEAGEWLRGDILGLLCSLALDAEAVAIPVSCNSIISSGRFFKHVKLTKIGSPYVIEAFNELSRSYSRIVGFEANGGFLLGSDICINEQNLHALPTRDAVLPAIMLLYKSRNTSISALVNELPTRYTHSDRLQGITTDKSQSLISMGRENLSNLLSYIGLENEGAISTDMTDGMRITLRDGCIVHLRASGNAPELRCYAEANLLNRAQDLVNTTLANIKKRCLL", "soluble on expression in E. coli": "not soluble"}
{"sequence": "MNYGFVKVAAAVPHVKVADCKFNVERIESQIAIAEGKGVQIIVFPEMSITGYTCGDLFGQQILLEEAEMGLMQILNNTRQLDIISIVGMPVVVNSTVINAAVVIQKGKVLGVAAKTYLPNYKEFYEQRWFTSALQLTEDTVRLCGQIVPIGANLLFETSDTTFGIEICEDLWATIPPSSSLALQGAEIIFNMSADNEGIGKHHYLCSLISQQSARCIAGYVFSSCGFGESTTDVVFAGNGLIYENGSLLARSKRFCMEEQLIISEIDVERIRAERRINTTFAASQGNPGDKKAISVATEFVNSKELTLTRDFNSHPFVPQGAELDEHCEEVFSIQIAGLAQRLVHTKAKTAVVGISGGLDSTLALLVCVKTFDKLGLPRKDILGVTMPGFGTTDRTYNNAIDLMKSLGISIREISIQDACIQHFKDIDHDINVHDVTYENSQARERTQILMDIANQTWGMVVGTGDLSELALGWATYNGDHMSMYGVNGSIPKTLVKYLVQWVAENDMDEDAKATLLDIVDTPISPELIPADENLEHHHHHH", "soluble on expression in E. coli": "soluble"}
{"sequence": "MPADPRNAGKDKGNLQMELQNLLTSARIRKMEYEAIVEELEEDELKYDLFEYQDYLENYIMPYVERAYKNGSKELIGMAEEVKSIFEEIIDMIKARIEKK", "soluble on expression in E. coli": "not soluble"}
{"sequence": "MPAGTRCVTQGEAEKNGMIPTGIFCDYQNGQEMYCYSEGKPDLVISDVWAYNTTPGVYSELRALVYNHGHGYAGKFSVAFFIDGSYVGEVEVNGLGANENTVARISYPHPCEGETDTFAAQVDYHNEVDEENENDNYHESPRIFQCSGGEMPNLEVVEAYIDYQDFCRALNYRNSSIVVVVANTGEQASPQTGGWIYIDGNSRGGFDIPSLQPGEETTISMNFPYMCEGSSDEIRVVVDSRNYVVESNENDNEYTFITDCIPMPSGTADLVVSYLETHVVEELLAGGLSYPLKSEINYTVENLGEDYSCNAEVGLFIDGVFQGQQYLPPLAPGDSITRTFIAKYDWERCSGISDTLTLKADVNNDVAESNENNNERSVTLYCIEYPLIKPDLTVEDVWIEGEGASNLDIVFTVKNIGLAASRATNAYVGVNYNPAGSTPIPPLNAGESVELRISGFTAQWQENTIEVCADSGNLVDEIPNEMNNCLTKTITIEDVGCYDGVRNRDEVGVDCGGYYCVPAALLRLKGDCSIRMTMAAGFQLEHHHHHH", "soluble on expression in E. coli": "not soluble"}
{"sequence": "MPAHQLSDDRAIQGTFMRKRRDSLASVVARDLAGRIERGDYAVGDKIPIEAQLCEMYNVSRTVVREAIATLRSEGLVTSRHGVGVFVEERGNPALSITREAAGELSEVLELLELRLGVEVEAAGLAARRATAEDLRQIREVLEKTDDLEAFAEHRRELDYAFHLAIARASGNSWMPKFMDFIGPVIIPRSQLLHDPQSGITGDYLRQMVEEHRQIVEAIAAGEAAAAQEAMRMHLSTSLERYRRRLTDA", "soluble on expression in E. coli": "not soluble"}
